For 3 substances, binding and Kd results are on record in publication PMC7186457.

Data set [1] addresses FLAG-L4 (ribosomal protein L4) (Escherichia coli (expressed in BL21(DE3) rne131)) (UniProt P60723). Kind of data set: competition. As to conditions: EMSA: 30 C, 20 min, native 5% PAGE, ~2 ng RNA, 0.7-5.5 uM L4, buffer not given (cited method); footprinting: room temperature (25 C), RNase V1 in 1x RNA …. (Mobility shift assays separate free from complexed probe on a gel.)
Data set [2] has as its system FLAG-L4 (ribosomal protein L4) (Escherichia coli (expressed in BL21(DE3) rne131)). The data set is described as follows: EMSA. As to conditions: EMSA: 30 C, 20 min, native 5% PAGE, ~2 ng RNA, 0.7-5.5 uM L4, buffer not given (cited method); footprinting: room temperature (25 C), RNase V1 in 1x RNA ….

Consider “GGGGCUUAACGUCGCGUAAAUUGUUUAACACUUUGCGUAACGUACACUGGGAUCGCUGAAUUAGAGAUCGGCGUCCUUUCAUUCUAUAUACUUUGGAGUUUUAAAAUGUCUCUAAGUACUGAAGCAACAGCUAAAAUCGUUUCUGAG [rpsO-UTR RNA]”, for which, in data set [1], the binding result is reported as “no binding”.

Consider “GGGGGCUUGUCGUAGUUGACAGCAGGUUCAAUCUGAACCUCAGUUAGCCGAAUUUGGCUACCUAACAAUGCUCCCAAUCGGGGAGCUACGUAAGAACGGUUACACUCUCCCAUCAAUCGUAAUGGGUCUGAGGAGUAAUCAUUUUCGUUUAUAAAAUAAUUGGAGCUCUGGUCUC [S10-UTR RNA]”, for which, in data set [1], the binding result was “binds”. As usually defined, the Kd is the constant that tells how readily two partners part at equilibrium. High values mean a looser complex, low ones a tighter complex. Turning to “tnaC-tnaA transcribed spacer RNA (gel shift)”, in data set [2], the Kd was 2100 nM.
